Experimental data as given in publication PMC5913127.
Values belong to the substance of their own block, whether it stands above or below them.

Key:
[1] = molecular target: ^chaducanumab (murine chimeric IgG2a/kappa version of aducanumab) (human | murine); experiment: ELISA; antibody (5 μg/mL) captured on coated goat anti-mouse IgG Fcγ antibody; serially diluted monomeric biotin-conjugated Aβ1-40 in PBS with 1% BSA; HRP-streptavidin detection
[2] = molecular target: dimeric Aβ_(1-15) multi-antigen peptide (MAP); experiment: not stated; binding of antibody to branched multi-antigen peptides of Aβ1-15, EC50 (Fig. S5)
Aβ_(1-16) peptide = Aβ_(1-16) peptide (UniProt P05067); experiment: MST
Aβ_(1-28) peptide = experiment: SPR
Sequence of Aβ_(1-28) peptide (P05067 672-699): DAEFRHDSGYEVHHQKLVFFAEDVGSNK

- EC50 [1]: > 1 µM
Substance: biotin-conjugated Aβ_(1-40) (Aβ_(1-40)-Lys-Biotin), monomeric (peptide)

- EC50 [2]: > 1 µM
Substance: ^chaducanumab (murine chimeric IgG2a/kappa version of aducanumab) (antibody)

- Kd (Aβ_(1-16) peptide): 0.0966 µM
- Kd (Aβ_(1-28) peptide): 1.3 µM
Substance: chgantenerumab
